Measured values reported in doi:10.1101/2020.03.26.992446.

B1: purified DJ-1 WT (N-terminal 6×His-tagged), Q99497 1-189 (natural protein)
chain: MASKRALVILAKGAEEMETVIPVDVMRRAGIKVTVAGLAGKDPVQCSRDVVICPDASLEDAKKEGPYDVVVLPGGNLGAQNLSESAAVKEILKEQENRKGLIAAICAGPTALLAHEIGFGSKVTTHPLAKDKMMNGGHYTYSENRVEKDGLILTSRGPGTSFEFALAIVEALNGKEVAAQVKAPLVLKD

Columns and labels:
[1] = biological target: purified DJ-1 V51C (N-terminal 6×His-tagged) (human) (UniProt Q99497); experiment: SEC
[2] = biological target: T1, purified DJ-1 WT (N-terminal 6×His-tagged) (human), Q99497; experiment: SEC; settings: remark: other sources report otherwise
T1 chain: B1 chain

Molecule	percent of protein that is dimer [1]	percent of protein that is dimer [2]	stoichiometry N [2]
purified DJ-1 V51C (N-terminal 6×His-tagged) (from UniProt Q99497 1-189) (natural protein)	15%		
B1		33%	2
